{"source": "paper PMC4775227", "about": "“Molecular mechanism of thermosensory function of human heat shock transcription factor Hsf1” (eLife, 2016)", "binders": {"B1": {"name": "human heat shock transcription factor Hsf1, wild type, Q00613 1-529 (natural protein)", "chain": "MDLPVGPGAAGPSNVPAFLTKLWTLVSDPDTDALICWSPSGNSFHVFDQGQFAKEVLPKYFKHNNMASFVRQLNMYGFRKVVHIEQGGLVKPERDDTEFQHPCFLRGQEQLLENIKRKVTSVSTLKSEDIKIRQDSVTKLLTDVQLMKGKQECMDSKLLAMKHENEALWREVASLRQKHAQQQKVVNKLIQFLISLVQSNRILGVKRKIPLMLNDSGSAHSMPKYSRQFSLEHVHGSGPYSAPSPAYSSSSLYAPDAVASSGPIISDITELAPASPMASPGGSIDERPLSSSPLVRVKEEPPSPPQSPRVEEASPGRPSSVDTLLSPTALIDSILRESEPAPASVTALTDARGHTDTEGRPPSPPPTSTPEKCLSVACLDKNELSDHLDAMDSNLDNLQTMLSSHGFSVDTSALLDLFSPSVTVPDMSLPDLDSSLASIQELLSPQEPPRPPEAENSSPDSGKQLVHYTAQPLFLLDPGSVDTGSNDLPVLFELGEGSYFSEGDGFAEDPTISLLTGSEPPKAKDPTVS"}, "B2": {"name": "human Hsf1-S307D (natural protein, UniProt Q00613 1-529, looked up)", "chain": "B1 chain with S307D", "notes": "heat shock transcription factor 1 (Hsf1), human, phosphomimetic variant S307D; Probably made and purified as the wild type (6xHis-SUMO fusion in E. coli, tag cleaved); also called phosphomimetic Hsf1 variant"}, "B3": {"name": "human Hsf1-S303D (natural protein, UniProt Q00613 1-529, looked up)", "chain": "B1 chain with S303D", "notes": "heat shock transcription factor 1 (Hsf1), human, phosphomimetic variant S303D; Probably made and purified as the wild type (6xHis-SUMO fusion in E. coli, tag cleaved); also called phosphomimetic Hsf1 variant"}}, "key": {"[1]": {"target": "T1, human heat shock transcription factor Hsf1, wild type (human), Q00613", "T1 chain": "B1 chain", "experiment": "SEC; S200 HiLoad 16/60 in Hsf1-buffer (25 mM Hepes pH 7.4, 150 mM NaCl, 10% glycerol, 2 mM DTT), 4°C, after Ni-IDA and cleavage of the SUMO tag", "conditions": "remark: other sources report otherwise"}, "[2]": {"target": "T1, human heat shock transcription factor …", "experiment": "HDX-MS; kinetics: 5 µM Hsf1 heat-shocked 10-1000 s at 35, 37, 39 or 42°C, then 30 s in D2O at 20°C; single exponential fits of the low-exchanging fraction", "conditions": "remark: other sources report otherwise"}, "[3]": {"target": "T1, human heat shock transcription factor …", "experiment": "native gel or EMSA; blue native polyacrylamide gel; monomeric Hsf1 after heat shock (42°C; pre-incubation at different temperatures for 10 min), Hsf1-buffer; also detected by immunoblot with Hsf1 antiserum", "conditions": "remark: other sources report otherwise"}, "[4]": {"target": "T1, human heat shock transcription factor …", "experiment": "HDX-MS + fluorescence polarisation; monomer to dimer; fit of the quadratic solution of the law of mass action to Tm values (10 min incubation, wild type) against Hsf1 concentration, assuming the fraction of dimer determines Tm; rough estimate", "conditions": "remark: other sources report otherwise"}, "[5]": {"target": "the molecule itself", "experiment": "HDX-MS; 5 µM Hsf1 or mutant in Hsf1-buffer pre-incubated 10 or 30 min at 20-42°C, diluted 1:20 into D2O buffer, 30 s at 20°C, quenched, online pepsin, LC-MS"}}, "note": "Substitutions are numbered along the chain they refer to. Numbers in names are those of the source. Where “and” joins values, the source holds several entries; their conditions need not be identical. Equal values may be shown once."}
{"binder": "B1", "values": [{"measurement": "stoichiometry N", "setting": "[1]", "value": "2 and 3"}, {"measurement": "rate of increase of the low-exchanging HR-A/B population (trimerization) at 35°C", "setting": "[2]", "value": 0.0018, "unit": "s⁻¹"}, {"measurement": "rate of increase of the low-exchanging HR-A/B population (trimerization) at 37°C", "setting": "[2]", "value": 0.0033, "unit": "s⁻¹"}, {"measurement": "rate of increase of the low-exchanging HR-A/B population (trimerization) at 39°C", "setting": "[2]", "value": 0.0094, "unit": "s⁻¹"}, {"measurement": "rate of increase of the low-exchanging HR-A/B population (trimerization) at 42°C", "setting": "[2]", "value": 0.016, "unit": "s⁻¹"}, {"measurement": "stoichiometry N", "setting": "[3]", "value": 3}, {"measurement": "Kd", "setting": "[4]", "value": 330, "unit": "nM"}]}
{"binder": "B2", "values": [{"measurement": "binding result", "setting": "[5]", "value": "binds"}]}
{"binder": "B3", "values": [{"measurement": "binding result", "setting": "[5]", "value": "binds"}]}
